The values that follow come from patent publication US7799901B2, “Modulators of the function of FAS receptors and other proteins” (Yeda Research and Development Co. Ltd., priority 1995, dated 2010).

One assay concerns the target T1, MORT1DD (130-245) (Homo sapiens, UniProt Q13158).
T1 construct: 130-245 MORT-1; expressed in transfected cells
T1 sequence (Q13158 82-197): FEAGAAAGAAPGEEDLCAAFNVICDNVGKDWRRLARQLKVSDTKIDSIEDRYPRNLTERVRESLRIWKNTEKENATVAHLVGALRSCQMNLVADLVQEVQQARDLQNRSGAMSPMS
The assay can be described thus: Two-hybrid β-galactosidase expression filter assay in SFY526 yeast, DNA-binding domain hybrid MORT1DD (130-245). The source says:
To isolate proteins interacting with the intracellular domain of the FAS-R, the yeast two-hybrid system was used (Fields and Song, 1989). […] In this system, the genes for the candidate interacting proteins are cloned into separate expression vectors. In one expression vector, the sequence of the one candidate protein is cloned in phase with the sequence of the GAL4 DNA-binding domain to generate a hybrid protein with the GAL4 DNA-binding-domain, and in the other vector, the sequence of the second candidate protein is cloned in phase with the sequence of the GAL4 activation domain to generate a hybrid protein with the GAL4-activation domain. The two hybrid vectors are then co-transformed into a yeast host strain having a lacZ or HIS3 reporter gene under the control of upstream GAL4 binding sites. […]
The yeast two-hybrid test was further applied to evaluate the specificity of binding of MACH to MORT-1, in particular, to define the region in MORT-1 to which MACH binds, as well as to determine which of the MACH ORFs interacts with MORT-1, the procedures being as set forth herein above in Examples 1 and 2. Briefly, various MORT-1 and MACH constructs were prepared for testing the interaction of the proteins encoded by the Gal4 DNA-binding domain and activation domain constructs within transfected SFY526 yeast cells as assessed by the β-galactosidase expression filter assay. […]

Another assay has as its target T2, MACHα1 (C360S) (Homo sapiens, UniProt Q14790, C360S).
T2 construct: expressed in transfected cells; host or cells: SFY526 yeast
Put plainly: Two-hybrid β-galactosidase filter assay (FIG. 5), binding to MACHα1 (C360S). The settings on record: two hybrid test. The method, then:
In FIG. 5, there is shown the results of the interaction of MORT-1 and MACH within transfected yeast cells. Briefly, MORT-1 and MACHβ1 and their deletion constructs, as well as MACHα1, a MACHα1 mutant in which the catalytic cysteine Cys360 is replaced by Ser (MACHα1 (C360S)) and the intracellular domain of human FAS-R (Fas-IC), were expressed within transfected SFY526 yeast in Gal4 DNA binding domain and activation domain constructs (pGBT9 and pGAD-GH). Their interaction was assessed by a β-galactosidase expression filter assay as described in Boldin et al (1995b). The results are presented in terms of the time required for the development of strong color. […] None of the inserts examined interacted with a number of tested negative controls, including the intracellular domains of human p55 TNF receptor, p75 TNF receptor and CD40, and lamin, cyclin D and ‘empty’ Gal4 vectors. MACHβ1 was cloned by two hybrid screening of a Gal4 AD-tagged human B cell library (Durfee et al, 1993) for proteins that bind to MORT-1, using the HF7c Yeast reporter strain. Except where otherwise indicated, all experimental procedures for the findings presented are as described above (see also Boldin et al, 1995). […] MACHβ1 also self-associated in the transfected yeast. […] Expression of MACHβ1 molecules in mammalian cells yielded a 34 kDa protein that bound to MORT-1 molecules co-expressed with it. […]

B1: MACHβ1: MACH isoform, cDNA SEQ ID NO: 4, amino acid SEQ ID NO: 5; lacks the CED3/ICE homology region (protein)
chain: MDFSRNLYDIGEQLDSEDLASLKFLSLDYIPQRKQEPIKDALMLFQRLQEKRMLEESNLSFLKELLFRINRLDLLITYLNTRKEEMERELQTPGRAQISAYRVMLYQISEEVSRSELRSFKFLLQEEISKCKLDDDMNLLDIFIEMEKRVILGEGKLDILKRVCAQINKSLLKIINDYEEFSKERSSSLEGSPDEFSNDFGQSLPNEKQTSGILSDHQQSQFCKSTGESAQTSQH
B1: the “development of color (interaction with DNA-binding domain hybrid)” value with MORT1DD (130-245) was “−−− (“−−−” indicates the lack of development of color within 24 hrs. of the assay)”.

B2: MACHα1 (C360S): MACHα1 mutant in which the catalytic cysteine Cys360 is replaced by Ser (protein)
chain: MDFSRNLYDIGEQLDSEDLASLKFLSLDYIPQRKQEPIKDALMLFQRLQEKRMLEESNLSFLKELLFRINRLDLLITYLNTRKEEMERELQTPGRAQISAYRVMLYQISEEVSRSELRSFKFLLQEEISKCKLDDDMNLLDIFIEMEKRVILGEGKLDILKRVCAQINKSLLKIINDYEEFSKERSSSLEGSPDEFSNGEELCGVMTISDSPREQDSESQTLDKVYQMKSKPRGYCLIINNHNFAKAREKVPKLHSIRDRNGTHLDAGALTTTFEELHFEIKPHDDCTVEQIYEILKIYQLMDHSNMDCFICCILSHGDKGIIYGTDGQEAPIYELTSQFTGLKCPSLAGKPKVFFIQASQGDNYQKGIPVETDSEEQPYLEMDLSSPQTRYIPDEADFLLGMATVNNCVSYRNPAEGTWYIQSLCQSLRERCPRGDDILTILTEVNYEVSNKDDKKNMGKQMPQPTFTLRKKLVFPSD
In the case of B2, the “binding to MACHα1 (C360S) in transfected yeast” value with MACHα1 (C360S) is given as “bound”.
